# Patent US20250340623A1 (AC IMMUNE, published 2025)
# Residue numbers refer to the chain shown, from its start. Where no end group is shown, it is not given here. The star is where a group is joined. Biotin = O=C1N[C@H]2[C@H](CS[C@H]2CCCCC(=O)*)N1; Ahx = NCCCCCC(=O)O
# T1: 64-78aa
# T1 construct: also called alpha-synuclein peptide 64-78
# T1 peptide: {Biotin-Ahx}-TNVGGAVVTGVTAVA
# T2: 82-96aa
# T2 construct: also called alpha-synuclein peptide 82-96
# T2 peptide: {Biotin-Ahx}-VEGAGSIAAATGFVK
# T3: 91-105aa
# T3 peptide: {Biotin-Ahx}-ATGFVKKDQLGKNEE
# T4: 118-132aa
# T4 peptide: {Biotin-Ahx}-VDPDNEAYEMPSEEG
# T5: 1-14aa
# T5 construct: also called alpha-synuclein peptide 1-14
# T5 peptide: MDVFMKGLSKAKEG-biotin
# T6: 1-15aa
# T6 construct: also called alpha-synuclein peptide 1-15
# T6 peptide: {Biotin-Ahx}-MDVFMKGLSKAKEGV
# T7: 10-24aa
# T7 construct: also called alpha-synuclein peptide 10-24
# T7 peptide: {Biotin-Ahx}-KAKEGVVAAAEKTKQ
# T8: 46-60aa
# T8 construct: also called alpha-synuclein peptide 46-60
# T8 peptide: {Biotin-Ahx}-EGVVHGVATVAEKTK
# T9: 127-140aa
# T9 peptide: {Biotin-Ahx}-MPSEEGYQDYEPEA
# B1: ACI-1108B11_27D8 (bispecific antibody, V domains shown)
# VH 1: EVQLVESGGGLVQPKGSLKLSCAASGFTFNTYAMHWVRQAPGKGLEWVARIRSKGSNYATNYADSVKDRFTISRDDSQSMLYLQMNNLKTEDTAMYYCVRGHGSSYFSYWGQGTLVTVSA
# VL 1: QIVLTQSPAIMSASPGERITMTCSANSSVTYMHWYQQKSGTSPKRWIYDTSNLASGVPARFSGSGSGTSYSLTISSMEAEDAATYYCQQWKSHPPTFGAGTKLELK
# VH 2: EVQLVESGGGLVQPKGSLKLSCAASGFTFNTYAMNWVRQAPGKGLEWVARIRSKSNNFATYYADSVKDRFTISRDESESMLYLQMNNLKAEDTAMYYCVRSFDYWGQGTTLTVSS
# VL 2: DIKMTQSPSSMYASLGERVTITCKASQDINSYLSWFQQKPGKSPKTLIYRAKRLVDGVPSRFSGSGSGQDYSLTISSLEYEDMGIYYCLQYDEFPFTFGSGTKLEIK
# B2: ACI-3112H1_1101C8 (bispecific antibody, V domains shown)
# VH 1: EVQLQQSGPELVKPGASVKISCKASGYTFSDYFMNWVKQSHGKSLEWIGDINPNNGGSSYIQKFKGKATLTVDKSSTTAYMELRSLTSEDSAVYYCARGSNYAMDSWGQGTSVTVSS
# VL 1: DIVMSQSPSSLAVSAGEKVTMSCKSSQSLLNSRTRKNYLAWYQQKPGQSPKLLIYWASTRESGVPDRFTGSGSGTDFTLTISSVQAEDLAVYYCKQSYDLWTFGGGTKLEIK
# VH 2: EVQLVESGGGLVQPKGSLKLSCAASGFSFNIYAMNWVRQAPGKGLEWVARIRSKSNNYATYYADSVKDRFTISRADSESMLYLQMNNLKTEDTAMYYCVRVGLRFYAMDYWGQGTSVTVSS
# VL 2: DVLMTQTPLSLPVSLGDQASISCRSSQSIVHSNGNTYLEWYLQKPGQSPKLLIYKVSNRFSGVPDRFSGSGSGTDFTLKISRVEAEDLGVYYCFQGSQGPLTFGAGTKLELK
# B3: ACI-4301D5_3108C10 (bispecific antibody, V domains shown)
# VH 1: QVQLQQSGPELVRPGASVKISCKASGYRFTSYYIHWVKQRPGQGLEWIGWIYPGSDNTKHNDKFKGKATLTADTSSSTAYMQLSSLTSEDSAVYFCARDYDVGFGYWGQGTLVTVSS
# VL 1: not shown
# VH 2: ELQLVESGGGLVRPGGSLKLSCATSGFTFRNYAMSWVRQTPAKRLEWVATISDGGTYTFYSDNVKGRFTISRDNVKNTLYLQMSHLKSEDTAMYYCSRAGSGHWGQGTTLTVSS
# VL 2: not shown
# B4: ACI-7067-1108B11-Ab2 (antibody, V domains shown)
# VH: B1 VH 1
# VL: B1 VL 1
# notes: mouse hybridoma mAb; VH/VL only; also called 1108B11D3
# B5: ACI-7067-1113D10-Ab1 (antibody, V domains shown)
# VH: EVQLVESGGGLVQPKGSLKLSCAASGFTFNTYALHWVRQAPGKGLEWVARIRSKSSNYATYYADSVKDRFTISRDDSQSMLYLQMNNLKTEDTGMYYCVRGGVSPFDYWGQGTTLTVSS
# VL: QIVLTQSPAIMSASPGEKVTMTCSASSSVSYMHWYQQKSGTSPKRWIYDTSKLASGVPARFSGSGSGTSYSLTISSMEAEDSATYYCQQWSNNPPTFGGGTKLEIK
# notes: mouse hybridoma mAb; VH/VL only; also called 1113D10E3D5
# B6: ACI-7067-1106A8-Ab2 (antibody, V domains shown)
# VH: B1 VH 1
# VL: B1 VL 1 with R18K, I19V, N26S, T30S, K91N
# notes: mouse hybridoma mAb; VH/VL only; also called 1106A8H3
# B7: ACI-7079-2602G4-Ab4 (antibody, V domains shown)
# VH: B1 VH 1 with N30K, N57D, N61Y, Y97F, H102G, G103A, S104D, Y106W, S108A, A120T
# VL: B5 VL with K18R, V19I, S24T, T68A, S71T, S82A, S91N, N92R, K102Q, E104A
# notes: mouse hybridoma mAb; VH/VL only; also called 2602G4H1
# B8: ACI-7079-2603F3-Ab1 (antibody, V domains shown)
# VH: B1 VH 1 with N61Y, H102G, S104D, Y106W, S108A
# VL: B5 VL with K18R, S24T, T68A, S71T, S82A, S91N, N92S, K102Q, E104A
# notes: mouse hybridoma mAb; VH/VL only; also called 2603F3H3
# B9: ACI-7079-2501D10-Ab1 (antibody, V domains shown)
# VH: EVQLVESGGGLVQPKGSLKVSCAASGFTFKTYAMHWVRQAPGKGLEWVARIRSENSNFAKYYADSVKDRFTISRDDSQSMLYLQMNNLKTEDTAMYYCVRGYNGSSLDYWGQGTTLTVSS
# VL: B5 VL with S14F, K18R, S30N, S64G, S76N, S82A, S91R, N92S
# notes: mouse hybridoma mAb; VH/VL only; also called 2501D10C3
# B10: ACI-7079-2605B3-Ab2 (antibody, V domains shown)
# VH: EVQLVESGGGLVQPKGSLKLSCAASGFIFKTYAMHWVRQAPGKGLEWVARIRSKGGNYATYFADSVKDRFTISRDDSQNMLYLQVNNLKIEDTAMYFCVRGGNYSWFAYWGQGTLVTVSA
# VL: B5 VL with S30T, K52Q, Y70H, A79T, S82A, S91T, N92R, E104A
# notes: mouse hybridoma mAb; VH/VL only; also called 2605B3D1
# B11: ACI-7079-2507B3-Ab1 (antibody, V domains shown)
# VH: B9 VH with N86H, N87T, M95I
# VL: B5 VL with S14F, K18R, S30N, S64G, S76N, S82A, S91R, N92S
# notes: mouse hybridoma mAb; VH/VL only; also called 2507B3G8
# Biological target: T10, alpha-synuclein seeds (UniProt P37840 1-140)
# Test: cell-based or functional assay
row,Binder,"IC50, percentage of de novo alpha-synuclein aggregates formed in cells after immunodepletion of seeds [µM]"
1,B1,0.0086
2,B2,0.018
3,B3,0.0216

# Biological target: T10, alpha-synuclein seeds
# Test: cell-based or functional assay
# Remark: another data set of the same source
row,Binder,"aggregation half-time (τ1/2) of seeded alpha-synuclein aggregation, ThT; no antibody 26.9 hours [h]"
1,B4,33.3
2,B5,30.1

# Biological target: T1, 64-78aa
# Test: indirect ELISA on biotinylated 15-mer peptide
# Method: (§1) Serum-free supernatants were harvested from stable hybridomas. The supernatants containing antibodies of interest were then screened by an indirect ELISA assay to determine epitopes. Epitopes were first determined using a library of 15-mer peptides covering the entire sequence of human alpha-synuclein protein, spanning amino acids (aa) 1-140 with 9aa offset and […] overlap. […] Briefly, streptavidin-coated ELISA plates were blocked overnight at 4° C. […] Plates were washed with PBS/0.05% Tween®20 and then incubated with the hybridoma supernatants at 1/100 dilution for 1 hour at 25° C.
row,Binder,binding result
1,B6,no binding (tested: supernatant 1/100)
2,B4,no binding (tested: supernatant 1/100)
3,B5,no binding (tested: supernatant 1/100)

# Biological target: T2, 82-96aa
# Test: indirect ELISA on biotinylated 15-mer peptide
# Method: as §1
row,Binder,binding result
1,B6,no binding (tested: supernatant 1/100)
2,B7,no binding (tested: supernatant 1/100)
3,B4,no binding (tested: supernatant 1/100)
4,B8,no binding (tested: supernatant 1/100)
5,B5,no binding (tested: supernatant 1/100)
6,B9,no binding (tested: supernatant 1/100)
7,B10,no binding (tested: supernatant 1/100)
8,B11,no binding (tested: supernatant 1/100)

# Biological target: T3, 91-105aa
# Test: indirect ELISA on biotinylated 15-mer peptide
# Method: as §1
row,Binder,binding result
1,B7,no binding (tested: supernatant 1/100)
2,B8,no binding (tested: supernatant 1/100)
3,B9,no binding (tested: supernatant 1/100)
4,B10,no binding (tested: supernatant 1/100)
5,B11,no binding (tested: supernatant 1/100)

# Biological target: T4, 118-132aa
# Test: indirect ELISA on biotinylated 15-mer peptide
# Method: as §1
row,Binder,binding result
1,B6,no binding (tested: supernatant 1/100)
2,B7,no binding (tested: supernatant 1/100)
3,B4,no binding (tested: supernatant 1/100)
4,B8,no binding (tested: supernatant 1/100)
5,B5,no binding (tested: supernatant 1/100)
6,B9,no binding (tested: supernatant 1/100)
7,B10,no binding (tested: supernatant 1/100)
8,B11,no binding (tested: supernatant 1/100)

# Biological target: T5, 1-14aa
# Test: indirect ELISA on biotinylated 15-mer peptide
# Method: as §1
row,Binder,binding result
1,B7,no binding (tested: supernatant 1/100)
2,B8,no binding (tested: supernatant 1/100)
3,B9,no binding (tested: supernatant 1/100)
4,B10,no binding (tested: supernatant 1/100)
5,B11,no binding (tested: supernatant 1/100)

# Biological target: T6, 1-15aa
# Test: indirect ELISA on biotinylated 15-mer peptide
# Method: as §1
row,Binder,binding result
1,B7,no binding (tested: supernatant 1/100)
2,B8,no binding (tested: supernatant 1/100)
3,B9,no binding (tested: supernatant 1/100)
4,B10,no binding (tested: supernatant 1/100)
5,B11,no binding (tested: supernatant 1/100)

# Biological target: T7, 10-24aa
# Test: indirect ELISA on biotinylated 15-mer peptide
# Method: as §1
row,Binder,binding result
1,B7,no binding (tested: supernatant 1/100)
2,B8,no binding (tested: supernatant 1/100)
3,B9,no binding (tested: supernatant 1/100)
4,B10,no binding (tested: supernatant 1/100)
5,B11,no binding (tested: supernatant 1/100)

# Biological target: T8, 46-60aa
# Test: indirect ELISA on biotinylated 15-mer peptide
# Method: as §1
row,Binder,binding result
1,B6,no binding (tested: supernatant 1/100)
2,B7,no binding (tested: supernatant 1/100)
3,B4,no binding (tested: supernatant 1/100)
4,B8,no binding (tested: supernatant 1/100)
5,B5,no binding (tested: supernatant 1/100)
6,B9,no binding (tested: supernatant 1/100)
7,B10,no binding (tested: supernatant 1/100)
8,B11,no binding (tested: supernatant 1/100)

# Biological target: T9, 127-140aa
# Test: indirect ELISA on biotinylated 15-mer peptide, supernatant 1/100
# Method: as §1
row,Binder,binding result
1,B6,binds
2,B7,binds
3,B4,binds
4,B8,binds
5,B5,binds
6,B9,binds
7,B10,binds
8,B11,binds
